Source: US20260184814A1, “BROADLY NE[…] INFLUENZA NEURAMINIDASE” (priority 2022, published 2026)
Like-named read-outs stand apart in the source and are kept apart here.

Legend:
[1] = molecular target: human FcγRIIIa (F158 allele) (human) (UniProt P08637)
[2] = molecular target: human FcγRIIIa (V158 allele) (human) (UniProt P08637)
human FcRn (human) [3] = molecular target: human FcRn (human) (UniProt P55899); assay: MSD [cont'd]
[4] = molecular target: human FcγRIIIa (F158 allele) (human) (UniProt P08637); assay: MSD [cont'd]
[5] = molecular target: human FcγRIIIa (V158 allele) (human) (UniProt P08637); assay: MSD [cont'd]
human FcγRIIIb (human) [6] = molecular target: human FcγRIIIb (human) (UniProt O75015); assay: MSD [cont'd]
[7] = molecular target: human FcγRIIa (H131 allele) (human) (UniProt P12318); assay: MSD [cont'd]
[8] = molecular target: human FcγRIIa (R131 allele) (human) (UniProt P12318); assay: MSD [cont'd]
human FcγRIIb (human) [9] = molecular target: human FcγRIIb (human) (UniProt P31994); assay: MSD [cont'd]
human FcγRIIb (human) [10] = molecular target: human FcγRIIb (human) (UniProt P31994); assay: MSD
human C1q (human) [11] = molecular target: human C1q (human) (UniProt P02745); assay: MSD [cont'd]
human FcRn (human) [12] = molecular target: human FcRn (human) (UniProt P55899); assay: MSD [cont'd]; remark: listed apart in the source
[13] = molecular target: human FcγRIIIa (F158 allele) (human) (UniProt P08637); assay: MSD [cont'd]; remark: listed apart in the source
[14] = molecular target: human FcγRIIa (H131 allele) (human) (UniProt P12318); assay: MSD [cont'd]; remark: listed apart in the source
[15] = molecular target: human FcγRIIa (R131 allele) (human) (UniProt P12318); assay: MSD [cont'd]; remark: listed apart in the source
human FcγRIIb (human) [16] = molecular target: human FcγRIIb (human) (UniProt P31994); assay: MSD [cont'd]; remark: listed apart in the source
[17] = molecular target: human FcγRIIIa (V158 allele) (human) (UniProt P08637); assay: MSD [cont'd]; remark: listed apart in the source
[18] = molecular target: human FcγRIIIa (F158 allele) (human) (UniProt P08637); remark: listed apart in the source
[19] = molecular target: human FcγRIIIa (V158 allele) (human) (UniProt P08637); remark: listed apart in the source
[20] = molecular target: human FcγRIIa (H131 allele) (human) (UniProt P12318)
human FcγRIIb (human) [21] = molecular target: human FcγRIIb (human) (UniProt P31994)
[22] = molecular target: human FcγRIIIa (F158 allele) (human) (UniProt P08637); assay: MSD
[23] = molecular target: human FcγRIIIa (V158 allele) (human) (UniProt P08637); assay: MSD
human FcγRIIIb (human) [24] = molecular target: human FcγRIIIb (human) (UniProt O75015); assay: MSD
[25] = molecular target: human FcγRIIa (H131 allele) (human) (UniProt P12318); assay: MSD
[26] = molecular target: human FcγRIIa (R131 allele) (human) (UniProt P12318); assay: MSD
human C1q (human) [27] = molecular target: human C1q (human) (UniProt P02745); assay: MSD [cont'd]; remark: listed apart in the source
human FcRn (human) [28] = molecular target: human FcRn (human) (UniProt P55899); assay: MSD, pH 6 [cont'd]
human FcγRIIb (human) [29] = molecular target: human FcγRIIb (human) (UniProt P31994); assay: Table B summary, vs fucosylated wild-type human IgG1

human FcγRIIIa (V158 allele) (human), sequence (P08637 17-208 F176V limits assumed): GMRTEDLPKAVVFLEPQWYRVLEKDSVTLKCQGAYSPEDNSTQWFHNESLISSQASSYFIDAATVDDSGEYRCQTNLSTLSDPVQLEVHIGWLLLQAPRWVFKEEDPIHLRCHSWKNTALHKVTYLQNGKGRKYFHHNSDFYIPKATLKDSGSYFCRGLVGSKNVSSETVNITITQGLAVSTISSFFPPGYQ
human FcγRIIa (H131 allele) (human), sequence (P12318 34-218 limits assumed): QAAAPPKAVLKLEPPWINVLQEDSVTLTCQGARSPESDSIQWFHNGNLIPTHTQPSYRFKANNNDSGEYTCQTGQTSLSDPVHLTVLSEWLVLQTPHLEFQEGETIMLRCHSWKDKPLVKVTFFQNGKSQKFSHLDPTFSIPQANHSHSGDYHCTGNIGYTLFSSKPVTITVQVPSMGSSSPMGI
human FcγRIIb (human), sequence (P31994 43-217 limits assumed): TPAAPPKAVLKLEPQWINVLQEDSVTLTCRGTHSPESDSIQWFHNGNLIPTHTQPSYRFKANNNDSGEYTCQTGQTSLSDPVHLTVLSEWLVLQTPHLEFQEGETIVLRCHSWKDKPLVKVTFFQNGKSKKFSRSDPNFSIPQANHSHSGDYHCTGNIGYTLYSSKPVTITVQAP
human FcγRIIIa (F158 allele) (human), sequence (P08637 17-208 limits assumed): as the sequence (P08637 17-208 F176V limits assumed) above, with V160F counted along it
human FcγRIIIb (human), sequence (O75015 17-200 limits assumed): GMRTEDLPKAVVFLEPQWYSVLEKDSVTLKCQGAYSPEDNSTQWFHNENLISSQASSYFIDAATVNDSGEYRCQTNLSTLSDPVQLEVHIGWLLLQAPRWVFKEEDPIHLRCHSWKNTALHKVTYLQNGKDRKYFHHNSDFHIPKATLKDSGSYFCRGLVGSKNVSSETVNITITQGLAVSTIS
human C1q (human), sequence (P02745 23-245 limits assumed, chain 1 of 3): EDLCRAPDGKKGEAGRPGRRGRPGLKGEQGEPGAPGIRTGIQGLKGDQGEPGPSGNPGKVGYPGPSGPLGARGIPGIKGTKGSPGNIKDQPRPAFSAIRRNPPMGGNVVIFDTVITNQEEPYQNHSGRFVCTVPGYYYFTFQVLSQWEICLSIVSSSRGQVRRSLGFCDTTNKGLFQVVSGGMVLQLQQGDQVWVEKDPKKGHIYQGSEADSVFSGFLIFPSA
human C1q (human), sequence (P02746 28-253 limits assumed, chain 2 of 3, further chain): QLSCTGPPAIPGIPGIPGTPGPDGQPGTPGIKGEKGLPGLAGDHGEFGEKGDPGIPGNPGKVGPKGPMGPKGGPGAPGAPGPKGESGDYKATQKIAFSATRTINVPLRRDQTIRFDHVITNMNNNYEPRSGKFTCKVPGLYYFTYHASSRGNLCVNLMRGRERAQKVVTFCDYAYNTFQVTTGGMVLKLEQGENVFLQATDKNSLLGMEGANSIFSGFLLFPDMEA
human C1q (human), sequence (P02747 29-245 limits assumed, chain 3 of 3, further chain): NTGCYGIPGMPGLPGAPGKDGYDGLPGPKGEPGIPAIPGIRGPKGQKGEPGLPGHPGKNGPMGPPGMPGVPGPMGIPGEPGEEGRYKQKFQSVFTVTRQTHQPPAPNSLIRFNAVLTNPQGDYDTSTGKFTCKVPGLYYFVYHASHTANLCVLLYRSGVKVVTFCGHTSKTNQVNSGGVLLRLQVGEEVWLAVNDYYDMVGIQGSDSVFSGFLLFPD
human FcRn (human), sequence (P55899 24-297 limits assumed, chain 1 of 2): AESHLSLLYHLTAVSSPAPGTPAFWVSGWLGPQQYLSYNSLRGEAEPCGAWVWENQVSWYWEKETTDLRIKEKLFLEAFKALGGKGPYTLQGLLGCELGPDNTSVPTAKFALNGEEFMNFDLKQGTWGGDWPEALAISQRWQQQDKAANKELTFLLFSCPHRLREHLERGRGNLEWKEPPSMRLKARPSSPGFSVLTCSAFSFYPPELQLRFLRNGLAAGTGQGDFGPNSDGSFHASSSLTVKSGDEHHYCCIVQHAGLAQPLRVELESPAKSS
human FcRn (human), sequence (chain, as listed by the source limits assumed, chain 2 of 2): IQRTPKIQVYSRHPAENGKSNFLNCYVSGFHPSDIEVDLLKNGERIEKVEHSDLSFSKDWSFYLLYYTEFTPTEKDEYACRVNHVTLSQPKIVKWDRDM
human FcγRIIa (R131 allele) (human), sequence (P12318 34-218 H167R limits assumed): as the sequence (P12318 34-218 limits assumed) above, with H134R counted along it

Substance	FcγR reporter signaling, fold to wt-fucose [cont'd] [1]	FcγR reporter signaling, fold to wt-fucose [cont'd] [2]	fold to wt-fucose (human FcRn (human) [3])	fold to wt-fucose [4]	fold to wt-fucose [5]	fold to wt-fucose (human FcγRIIIb (human) [6])	fold to wt-fucose [7]	fold to wt-fucose [8]	fold to wt-fucose (human FcγRIIb (human) [9])	fold-change vs wt (human C1q (human) [11])	fold-change vs wt (human FcRn (human) [12])	fold-change vs wt [13]	fold-change vs wt [14]	fold-change vs wt [15]	fold-change vs wt (human FcγRIIb (human) [16])	fold-change vs wt [17]	further results
G236A_S239D_A330L_I332E-afuc (antibody)	11.5 fold	5.16 fold	0.96 fold	730 fold	75.6 fold	94.3 fold	3.58 fold	7.58 fold	1.21 fold								
G236R_L328R-afuc (antibody)	0.05 fold	0.2 fold	1.09 fold	0.33 fold	0.07 fold	0.6 fold	0.16 fold	0.24 fold	0.17 fold								fold-change (reference not given) (human FcγRIIb (human) [10]): 0.2 fold
IgG1 antibody with Fc variant E272R_L309T_S219Y_S267E										2.53 fold	0.98 fold	0.37 fold	0.33 fold	10.7 fold	4.77 fold		
IgG1 antibody with Fc variant E345K_G236S_L235Y_S267E										2.35 fold	0.9 fold	0.29 fold	0.53 fold	9.22 fold	1.71 fold	0.05 fold	
IgG1 antibody with Fc variant F243L_G446E_P396L_S267E										4.17 fold	1.05 fold	0.63 fold	0.77 fold	31.1 fold	15.7 fold	0.24 fold	
IgG1 antibody with Fc variant G236A_R292P																	FcγR reporter signaling, fold-change vs wt [cont'd] [18]: 0.29 fold; FcγR reporter signaling, fold-change vs wt [cont'd] [19]: 0.54 fold; FcγR reporter signaling, fold-change vs wt [cont'd] [20]: 1.47 fold; FcγR reporter signaling, fold-change vs wt [cont'd] (human FcγRIIb (human) [21]): 0.15 fold; fold-change vs wt [22]: 0.6 fold; fold-change vs wt [23]: 0.41 fold; fold-change vs wt (human FcγRIIIb (human) [24]): 0.95 fold; fold-change to WT Fc [25]: 5.65 fold; fold-change vs wt [25]: 5.65 fold; fold-change to WT Fc [26]: 1.04 fold; fold-change vs wt [26]: 1.04 fold; fold-change to WT Fc (human FcγRIIb (human) [10]): 0.446 fold; fold-change vs wt (human FcγRIIb (human) [10]): 0.45 fold; fold-change to WT Fc (human C1q (human) [27]): 0.125 fold; fold-change vs wt (human C1q (human) [27]): 0.13 fold; fold-change vs wt (human FcRn (human) [3]): 0.81 fold; fold-change to WT Fc [4]: 0.603 fold; fold-change to WT Fc [5]: 0.411 fold; fold-change to WT Fc (human FcRn (human) [28]): 0.809 fold; fold-change in binding vs fucosylated wild-type human IgG1 (human FcγRIIb (human) [29]): 0.5 fold
IgG1 antibody with Fc variant G236S_G420V_G446E_L309T																	FcγR reporter signaling, fold-change vs wt [cont'd] [18]: 0.03 fold; FcγR reporter signaling, fold-change vs wt [cont'd] [19]: 0.06 fold; FcγR reporter signaling, fold-change vs wt [cont'd] [20]: 2.56 fold; FcγR reporter signaling, fold-change vs wt [cont'd] (human FcγRIIb (human) [21]): 0.22 fold; fold-change vs wt [22]: 0.32 fold; fold-change vs wt [23]: 0.09 fold; fold-change vs wt (human FcγRIIIb (human) [24]): 0.56 fold; fold-change vs wt [25]: 4.85 fold; fold-change vs wt [26]: 1.47 fold; fold-change vs wt (human FcγRIIb (human) [10]): 0.39 fold; fold-change vs wt (human C1q (human) [27]): 0.21 fold; fold-change vs wt (human FcRn (human) [3]): 0.77 fold; fold-change in binding vs fucosylated wild-type human IgG1 (human FcγRIIb (human) [29]): 0.5 fold
IgG1 antibody with Fc variant G236W										3.63 fold	1.09 fold	0.54 fold	1.06 fold	0.47 fold	0.65 fold	0.12 fold	fold-change to WT Fc [25]: 1.06 fold; fold-change to WT Fc [26]: 0.469 fold; fold-change to WT Fc (human FcγRIIb (human) [10]): 0.652 fold; fold-change to WT Fc (human C1q (human) [27]): 3.66 fold; fold-change to WT Fc [4]: 0.541 fold; fold-change to WT Fc [5]: 0.117 fold; fold-change to WT Fc (human FcRn (human) [28]): 1.09 fold
IgG1 antibody with Fc variant G236Y										3.22 fold	1.05 fold	0.56 fold	0.74 fold	0.42 fold	0.55 fold	0.12 fold	fold-change to WT Fc [25]: 0.735 fold; fold-change to WT Fc [26]: 0.418 fold; fold-change to WT Fc (human FcγRIIb (human) [10]): 0.547 fold; fold-change to WT Fc (human C1q (human) [27]): 3.25 fold; fold-change to WT Fc [4]: 0.559 fold; fold-change to WT Fc [5]: 0.116 fold; fold-change to WT Fc (human FcRn (human) [28]): 1.05 fold
R292P_Y300L-afuc (antibody)	10.6 fold	4.52 fold	0.82 fold	26.5 fold	16.1 fold	4.53 fold	1.27 fold	0.72 fold	1.05 fold								
S239D_H268E_G236A-afuc (antibody)	11.6 fold	5.65 fold	1.01 fold	425 fold	84.9 fold	38.1 fold	13.6 fold	62 fold	6.35 fold								
